Experimental data as given in the nanobody polyreactivity screen of Harvey et al. (2022).

Assay: yeast display, Sf9 membrane polyspecificity reagent, FACS + sequencing; frameworks hold sequencing errors
Method in brief: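 Galactose-induced (36–48 hours) yeast carrying a synthetic nanobody display library were exposed to 10% biotinylated, detergent-solubilized Sf9 membrane reagent at 4 °C for 1 hour. FACS followed streptavidin microbead enrichment, using low and high (top ~1%) gates for expression (anti-HA) and reagent binding (streptavidin). Colony PCR, MiSeq 2 × 250 sequencing and CDR-length filtering followed. Labels for polyreactivity reflect the gate of origin.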

Sequence	polyreactivity (PSR sort gate)
QVQLVESGGGLVQAGGSLRLSCAASGRIVNYYAMGWYRQAPGKERELVAAINSGGSTDYADSVKGRFTISRDNAKNTVYLQMNSLKPEDTAVYYCNAEKTYLYTDIPGYARFGYWGQGTQVTVSS	high polyreactivity
QVQLVESGGGLVQAGGSLRLSCAASGRIVRNAMGWYRPAPGKEWELVAAITRSGGSTYYADSVKGRFTISRDNAKKTVYLQMNSLKPEDTAVYYCAARHYRSRDGYSGQGTQVTVSS	high polyreactivity
QVQLVESGGGLVQAGGSLRLSCAASGRIVRNAMGWYRQAPGKERELVAAISRSGGSTYDADSVKGRFTISRDNAKNTVYLQMNSLKPEDTAVYYCAKRSTSQSLQVEYWGQGTQVTVSS	high polyreactivity
QVQLVESGGGLVQAGGSLRLSCAASGRIVTSNAMGWYRQAPGKERELVAVISRRGGSTYYADYVKGRFTITRDNAKNTVYLQMNSVKPEDTAVYYCARRPYSYTRYEYWGQGTQVTVSS	low polyreactivity
QVQLVESGGGLVQAGGSLRLSCAASGRIVWGYAMGWYTPAPGKERDLVATITRGGSTNYADSVKGRFTISRDNAKNTVYLQMNSLKPEDTAVYYCARDWGKSEYDYWGQGTQVTVSS	high polyreactivity
QVQLVESGGGLVQAGGSLRLSCAASGRIVYRYAMGWYRQAPGKERELVAAISSGGSTYYADSVKGRFTISRDNAKNTVYLQMNSLKPEDTAVYYCAATWGRGTYYLYYYWGQGTQVTGSS	high polyreactivity
QVQLVESGGGLVQAGGSLRLSCAASGRIWSRYAMGWYRQAPGKERELVAAITQSGTSTYYADSVKGRFTFSRDNAKNTVYLQMNSLKPEDTAVYYCNAYRQYRYDYWGQGTQVTVSS	low polyreactivity
QVQLVESGGGLVQAGGSLRLSCAASGRIYARNAMGWYIQAPGKERELVAAITRGGSTYYADSVKGRFTISRDNAKNTVYLQMNSLKPEDTAVYYCAASYRGSTYKYYYWGQGTQVTVSS	high polyreactivity
QVQLVESGGGLVQAGGSLRLSCAASGRIYGINVMGRYRQAPGKEMELVAAISYRTGSTYYADSVKGRFTISRDNAKNTVYLQMNSLKPEDTEVYYCAVRRPSSYSYGEDYWGQGTQVTVSS	high polyreactivity
QVQLVESGGGLVQAGGSLRLSCAASGRIYKSYAMGWYRQAPGKERELVAAIRSGGSTYYADSVKGRFTISRDNAKNTVYLQMKSLKPEDTAVYYCAADRYSYGSNGYPRFEYYYWGQGTQVTVSS	high polyreactivity
QVQLVESGGGLVQAGGSLRLSCAASGRIYLTNAMGWYRQAPGKERELVAAITSGGSTYYADSVKGRFTISRDNAKNTVYLQMNSLKPEDTAVYYCNADTDRYWPYEYDYWGQGTQVTVSS	low polyreactivity
QVQLVESGGGLVQAGGSLRLSCAASGRIYPKNTMGWYRQERGKERELVAAINWNGGRTYYADSEKGRFTISRDNAKNTVYLPMNSLKPEYTAVYYCAKDGYWDFDYWGQGTQVTVSS	low polyreactivity
QVQLVESGGGLVQAGGSLRLSCAASGRIYPTYTMGWYRQAPGKERELVAAINRGGGSTYYADSVKGRFTISRDTAKNTVYLQLICLKPEDTAVYYCTARTYYRSYGYDYWGQGTQVTVSS	low polyreactivity
QVQLVESGGGLVQAGGSLRLSCAASGRIYRINALGWYRQAPGKERELVATITSGGGSTYADSVKGRFTISRDNAKNTVYLQMNSLKPEDTAVYFCAARSRIGRYTYDYWGQGTQVTVSS	high polyreactivity
QVQLVESGGGLVQAGGSLRLSCAASGRIYRRNTMGWYRQAPGKERELVAAITSSGGSTYADSVKGRFTISRDNAKNTVYLQMISLKPEDSAVYYCATYVAYHRGYRTYDHWGQGTHVTVSS	low polyreactivity
QVQLVESGGGLVQAGGSLRLSCAASGRIYSVYGLGWYRQAPGKDRELVAAISSSAGSTNYADSVKGRFTISRDNAKNTVYLQMNSLKPEDTAVYYCAAYYRRVVYYPTAYYIRKYDYWGQGTQVTVSS	high polyreactivity
QVQLVESGGGLVQAGGSLRLSCAASGRIYSYYAMGWYRQAPGKERELVATINSGGSTNYADSVNGRFTISRDNAKNTVYLQMKSLKPEDTAVYYCGALRDRDITVYYDTGRMYYWGQGTQVNVSS	low polyreactivity
QVQLVESGGGLVQAGGSLRLSCAASGRIYWNTMGWYRPAPGKERELVASISTGGGRTYYADSVKGRFTISRDNAKNTVYLQMNSLKPEDTAVYYCAARRGAGYSRFNYWGQGTQVTVSS	high polyreactivity
QVQLVESGGGLVQAGGSLRLSCAASGRIYWNTMGWYRQAPGKERQLVASISTGGGRTYYADSVKGRFTISRDNAKNTVYLQMNSLKPEDTAVYYCAARRGAGYSRFNYWGQGTQVTVSS	high polyreactivity
QVQLVESGGGLVQAGGSLRLSCAASGRIYYVYGMGWYRQAPGKERELVAAITRSGGSTYYADSVKGRFTISRDNAKNTVYLQMNSLKPEDTAVYYCAASVPYYTGYYYNAYEYWGQGTQVTVSS	high polyreactivity
QVQLVESGGGLVQAGGSLRLSCAASGRIYYWYDMGWYRQAPGKERELVAAISWSGGSTSYADSVKGRFTISRDNAKNTVYLQMNSLKPEDTAVYYCNADLTQYLGPVYEYGYWGQGTQVTVSS	low polyreactivity

Sequence	polyreactivity (PSR sort gate)
QVQLVESGGGLVQAGGSLRLSCAASGRIYYYYTMGWYRQAPGKERELVAGISRSGDRTYYADSVKGRFTISRDIAKNTVYLQMNSLKPEDTAVYYCATRWSSARMDYWGQGTQVTVSS	high polyreactivity
QVQLVESGGGLVQAGGSLRLSCAASGRLFGAYGMGWYRQAPRKERELVAAISNGGRTSYADSVKGRFTISRDNAKNTVYLQMNSLKPEDTAVYYCAAVYWPWYGAYDYWGQGTQVTVSS	high polyreactivity
QVQLVESGGGLVQAGGSLRLSCAASGRLFRHNAMGWYRQAPGKERELVAVISRSTGSTYYADSVKGRFTISRYNAKNTVYLQMNSLKPEDTAVYYCDAKYGSGQRYDYWGQGTQVTVSS	high polyreactivity
QVQLVESGGGLVQAGGSLRLSCAASGRLFRWYAMGGYRQAPGKERELVAAISRSGTSTYYADSVKGRFTISRDNAKNSVYLQMNSLKPEDTAVYYCAADAVIFGMDYWGQGTQVTVSS	low polyreactivity
QVQLVESGGGLVQAGGSLRLSCAASGRMGWYRQAPGKERELVAAITSGDRTNYADSVKGRFTISRDNAKNTVYLQMNSLKREDTAVYYCATEPSWYHGFIDPRGYWGQGTQVTVSS	low polyreactivity
QVQLVESGGGLVQAGGSLRLSCAASGRNFDRNAMGWSRQAPGKERELVARIDPGDDTNYADSVKGRFTISRDNAKNTVYLQMNSLKPEDTAVYYCATDPDYVLYRTAYYEYDYWGQGTQVTVSS	low polyreactivity
QVQLVESGGGLVQAGGSLRLSCAASGRNFFANAMGWYRQAPGKERELVASITRRSGGTYYADSVKGRFTISRDNAKNTVYLQMISLKPEDTAVYYCAARYTFPKDLYYYWGQGTQVTVSS	high polyreactivity
QVQLVESGGGLVQAGGSLRLSCAASGRNFGIYAMGWYRQAPGKERELVARITGGGSTNYADSVKGRFTISRDNAKNTVYLQMNSLKPEDTAVYYCAATVRRIVGNITRYDYWGQGTQVTVSS	low polyreactivity
QVQLVESGGGLVQAGGSLRLSCAASGRNFGRYAMGCYRQAPGKERELVAAITGRGASTYYADSVKGRFTISRDNAKHTVYLQMNSLKPEDTAVYYCNAFRGAQGTDAYDWGQGTQVPVSS	low polyreactivity
QVQLVESGGGLVQAGGSLRLSCAASGRNFGSNTMGWYRQAPGKERELVAAITGDDSTYADSVKGRFTISRDNAKNTVYLQMNSLKPEDTAVYYCAVVWVWDVWFLVYYWGQGTQVTVSS	low polyreactivity
QVQLVESGGGLVQAGGSLRLSCAASGRNFKQYAMGWYRQAPGKERELVAVITRGGGSTYYADSVKGRFTISRDNAKNTVYLQMNSLKPEDTAVYYCAARGTQAPPGRRTGGYNSWGQGTQVTVSS	high polyreactivity
QVQLVESGGGLVQAGGSLRLSCAASGRNFPDNTMGWYRHAPGKERELVATIAWIGASTYYADSEKGRFTISRDNAKNTVYLQMNSLKPEDTAVDYCAGTTSHRWYGFNSKYDFDYWGQGTQVTVSS	low polyreactivity
QVQLVESGGGLVQAGGSLRLSCAASGRNFQWYSMGWSRQAPGKEREFVAAIRYSGGSTYYADSVKGRFTISRDNAKNTVYLQMNSMKPEDTSVYYCNARTGFLARNKRFGYWGQGTQVSVSS	high polyreactivity
QVQLVESGGGLVQAGGSLRLSCAASGRNFRGNTMGWYRQAPGKERELVAAITRGGSTSYADSVKGRFTISRDNAKNTVILQMNSLKPEDTAVYYCATRTHGEGTRRVSWGQGTQVTVSS	low polyreactivity
QVQLVESGGGLVQAGGSLRLSCAASGRNFRLNAMGWYRQAPGKERDLVARITGSYGGSTYYADSVKGRFTISRDNAKNTVSLQMISLKPEDSAGYYCADDGTGSYKGYYWGLGTQVTVSS	high polyreactivity
QVQLVESGGGLVQAGGSLRLSCAASGRNFRYYAMGWYRQAPGKERELVAAITTGSSTYYADSVKGRFTISRDNAKNTVYLQMNSLKPEDTAVYYCNVFQGTRYGYWGQGTQVTVSS	low polyreactivity
QVQLVESGGGLVQAGGSLRLSCAASGRNFSRYALGWYRQAPGKERELVAAINNGGSTYYADSVKGRFTISRDNAMNTVYLQMNSLKPEDTALYYCAKLWWSNFKPVEYWGQGTQVTVSS	low polyreactivity
QVQLVESGGGLVQAGGSLRLSCAASGRNFSTYAMGWYRQAPWKERELVAAINKIGGSTYYADSVKGRFTISRDNAKNTVYLQMNILKPEDTAVYYCAADAPYYPVRRYYYWGQGTQVTVSS	low polyreactivity
QVQLVESGGGLVQAGGSLRLSCAASGRNFWYYAMGWYRQAPGKERELVAGITYGDGSTYYADSVKGRFTISRDNAKNTVYLQMNSLKPEDTAVYYCAVDLRSYWFRYGFDYWGQGTQVTVSS	low polyreactivity
QVQLVESGGGLVQAGGSLRLSCAASGRNFYYAMGWYRQEPGKERELVASITWSGGSTYYADSVKGRFTISRDNAKNTVYLQMNSLKPEDTAVYYCNADDLYTWYVEYNYWGQGTQVTVSS	low polyreactivity
